The values that follow come from paper PMC11508082.

The data set concerns the target T1, PdhR-his (Escherichia coli O157:H7 (EHEC) TUV93-0?) (UniProt P0ACM1).
T1 sequence: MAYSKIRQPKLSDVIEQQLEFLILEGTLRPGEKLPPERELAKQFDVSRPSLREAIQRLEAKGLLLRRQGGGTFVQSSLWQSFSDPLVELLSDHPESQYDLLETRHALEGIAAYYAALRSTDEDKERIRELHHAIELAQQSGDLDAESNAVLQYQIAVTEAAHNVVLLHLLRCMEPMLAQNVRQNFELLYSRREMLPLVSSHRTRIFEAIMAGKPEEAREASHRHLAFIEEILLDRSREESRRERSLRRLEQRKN
Kind of data set: EMSA. A general note: A gel shift assay detects complexes by their altered migration in electrophoresis.

In the case of “GGTTCCGATAGAAAGTCCTGGAACAACCGGACCAAAAAGAAAAACCTACCGAGTTGGTAATGGTATTGTGGGACAGTCTAATATCTGGAACGAAATGATCATGAGGCGGAAAAAGGAGAGTTA (double strand) [grlA promoter probe]”, the binding entry was “no binding”. Regarding “TGTGCACAGTTTCATGATTTCAATCAAAACCTGTATGGACATAAGGTGAATACTTTGTTACTTTAGCGTCACAGACATGAAATTGGTAAGACCAATTGACTTCGGCAAGTGGCTTAAGACAGGAACTCATGGCCTACAGCAAAATCCGCCAACCAAAACTCTCCGATGTGATTGAGCAGC (double strand) [PpdhR promoter probe]”, the binding entry was “binds”.
